The target of this assay is CD117 (mast/stem cell growth factor receptor, proto-oncogene c-Kit protein) on CD117+ mouse bone marrow cells (mouse) (UniProt P05532). The assay can be described thus: cell-based or functional assay.
Sequence of UniProt P05532 (P05532 25-979): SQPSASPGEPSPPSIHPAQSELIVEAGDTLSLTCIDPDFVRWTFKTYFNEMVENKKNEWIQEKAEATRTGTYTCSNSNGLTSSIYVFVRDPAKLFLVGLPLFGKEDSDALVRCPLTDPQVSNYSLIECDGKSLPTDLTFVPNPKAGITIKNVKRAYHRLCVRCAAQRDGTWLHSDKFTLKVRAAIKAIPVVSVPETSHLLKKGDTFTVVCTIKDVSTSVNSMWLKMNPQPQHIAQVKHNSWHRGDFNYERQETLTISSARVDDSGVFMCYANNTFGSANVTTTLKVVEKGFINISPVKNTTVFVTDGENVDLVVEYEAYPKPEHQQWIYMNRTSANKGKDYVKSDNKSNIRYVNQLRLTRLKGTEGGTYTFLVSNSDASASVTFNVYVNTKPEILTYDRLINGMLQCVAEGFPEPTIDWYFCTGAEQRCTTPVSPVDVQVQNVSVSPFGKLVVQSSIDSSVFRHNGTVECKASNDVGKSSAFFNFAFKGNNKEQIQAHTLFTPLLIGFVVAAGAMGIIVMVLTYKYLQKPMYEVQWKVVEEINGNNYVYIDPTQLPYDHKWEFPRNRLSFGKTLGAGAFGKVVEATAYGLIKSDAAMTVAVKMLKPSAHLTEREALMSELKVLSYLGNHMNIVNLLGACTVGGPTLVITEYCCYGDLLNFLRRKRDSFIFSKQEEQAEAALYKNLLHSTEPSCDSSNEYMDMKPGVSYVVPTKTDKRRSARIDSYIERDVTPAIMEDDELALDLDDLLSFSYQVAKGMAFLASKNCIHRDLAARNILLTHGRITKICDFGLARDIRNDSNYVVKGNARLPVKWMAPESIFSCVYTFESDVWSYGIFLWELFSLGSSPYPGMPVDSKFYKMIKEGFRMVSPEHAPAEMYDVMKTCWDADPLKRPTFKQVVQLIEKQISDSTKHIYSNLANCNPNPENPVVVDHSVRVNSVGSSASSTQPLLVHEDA

In the case of “Recombinant murine SCF, catalog #250-03, PeproTech (from UniProt P20826 26-189) (ligand)”, the HDR activity in CD117+ cells (recombination between reporter gene constructs) was found to be 2 fold and the γtcPNA4/donor DNA-mediated gene editing in CD117+ cells (% GFP expressing cells, flow cytometry) turned out to be 15%.

The values are drawn from US20170283830A1.
